{"source": "patent US20260035476A1", "target": "CD68 protein (human) (UniProt P34810)", "sequence (P34810 22-354)": "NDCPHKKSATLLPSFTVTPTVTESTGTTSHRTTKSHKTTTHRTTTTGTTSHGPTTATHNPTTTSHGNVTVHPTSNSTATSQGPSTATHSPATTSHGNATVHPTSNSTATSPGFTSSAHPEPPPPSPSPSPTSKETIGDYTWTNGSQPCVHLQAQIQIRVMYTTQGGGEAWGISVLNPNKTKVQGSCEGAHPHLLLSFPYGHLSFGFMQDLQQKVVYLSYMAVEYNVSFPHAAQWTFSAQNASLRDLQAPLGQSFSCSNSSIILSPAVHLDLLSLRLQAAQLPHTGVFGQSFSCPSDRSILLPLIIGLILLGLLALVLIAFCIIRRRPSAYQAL", "assay": "flow cytometry on lupus patient PBMC, B cells (FIG. 3B)", "data": [{"substance": "Y1/82A anti-CD68 monoclonal antibody", "values": [{"measurement": "percent of B cells co-stained for CD68 and ARID3a", "result": 29, "unit": "%"}]}]}
